Test results published in publication PMC1935004.

Tests used:
[1] = target: T1, BLBlaI-NTD (Bacillus licheniformis, UniProt P06555 1-82); test: NMR titration
T1 sequence: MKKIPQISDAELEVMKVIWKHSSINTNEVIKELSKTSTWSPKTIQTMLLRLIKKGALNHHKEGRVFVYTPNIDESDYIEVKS

[2] = target: T2, SAMecI-NTD (Staphylococcus aureus, UniProt P68261 1-83); test: NMR titration
T2 sequence: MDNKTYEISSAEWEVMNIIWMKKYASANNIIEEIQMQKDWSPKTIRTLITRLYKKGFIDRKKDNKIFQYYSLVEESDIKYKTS

B1: 1/2OP1blaP (dsDNA)
DNA 1: AAAGTATTACAT
DNA 2: ATGTAATACTTT
**Q.** With B1 as the binder, how does the Kd [1] read?
**A.** Its Kd is 190 ± 50 µM.

**Q.** What about the Kd [2] of the same binder?
**A.** Its Kd is 860 ± 80 µM.
